Laboratory results as given in US7449316B2, “UDP-galactose: β-D-galactose-R 4-α-D-galactosyltransferase, α4Gal-T1” (Glycozym APS, priority 2000, dated 2008).

Assays:
α4Gal-T1 = target: T1, α4Gal-T1 (Homo sapiens, UniProt Q9NPC4); test: Saccharide acceptor substrates tested with α4Gal-T1; format: biochemical; details: saccharide acceptors, α4Gal-T1 expressed in insect cells
T1 construct: The full coding constructs were assayed with 1% Triton X-100 homogenates of cells; made in house; host or cells: insect cells (High Five), baculovirus vector pVL1393
T1 sequence (Q9NPC4 1-353): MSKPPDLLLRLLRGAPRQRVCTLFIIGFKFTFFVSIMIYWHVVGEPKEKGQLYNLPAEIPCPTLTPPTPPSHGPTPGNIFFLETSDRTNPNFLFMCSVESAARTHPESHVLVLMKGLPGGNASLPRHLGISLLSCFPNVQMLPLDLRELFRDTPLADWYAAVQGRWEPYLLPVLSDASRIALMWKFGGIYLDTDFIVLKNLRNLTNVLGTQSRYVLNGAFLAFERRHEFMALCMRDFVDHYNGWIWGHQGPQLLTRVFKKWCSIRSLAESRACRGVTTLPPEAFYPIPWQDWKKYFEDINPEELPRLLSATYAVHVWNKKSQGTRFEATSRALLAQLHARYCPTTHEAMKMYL
Procedure: (§1) Full coding constructs were prepared by genomic PCR using primer pair HCRS131 (5′-[…]) (SEQ ID NO:7) and HCRS125 (5′-[…]) (SEQ ID NO:8) and genomic DNA from phenotyped individuals with phenotypes P1+ (#165) and p (#4) (see Table II for sequence). Three different full coding constructs were selected for expression: #67 (A109, T548, G903, G987), #45 (G109, T548, G903, A987), and p#5 (A109, A548, G903, G987). The products were cloned into BamHI and EcoRI sites of pBluescript KS+, and subsequently into the insect cell expression vector pVL1393 (Pharmingen), and sequenced in full. A truncated, secreted construct (amino acid residues 46-353) was prepared using primer pair HCRS124 (5′-[…]) (SEQ ID NO:9) and HCRS125 from a P1+ phenotype individual (#165), and the sequence confirmed as described above. The products were cloned into the expression vector pAcGP67A (Pharmingen). The variants of plasmids pVL-α4Gal-T1-full and pAcGP67-α4Gal-T1-sol were co-transfected with Baculo-Gold™ DNA (Pharmingen), and virus amplified as described previously (Bennett et al., 1996). Standard assays were performed in 50 μl reaction mixtures containing 25 mM Cacodylate (pH 6.5), 10 mM MnCl2, 0.25% Triton X-100, 100 μM UDP-[^14C]Gal (10,000 cpm/nmol) (Amersham), and the indicated concentrations of acceptor substrates (Sigma and Dextra Laboratories Ltd) (see Table I for structures). The full coding constructs were assayed with 1% Triton X-100 homogenates of cells twice washed in phosphate buffered saline or resuspended microsomal fractions.

[1] = P^k assay: galactosyltransferase activity with CDH, α4Gal-T1 constructs expressed in insect cells; format: biochemical; details: full coding constructs in insect (High Five) cells, microsomal fractions, 25 μg CDH, UDP-[14C]Gal, 4 hr, compared to uninfected cells or control construct
Procedure: (§2) FIG. 4 illustrates expression of full coding Expression of full coding α4Gal-T1 variants in High Five cells. Assays were performed with microsomal fractions, and controls included constructs encoding polypeptide GalNAc-T3 and -T4 (Bennett et al., 1998), as well as a β3GlcNAc-T (Amado et al., 1999). Autoradiography of high performance thin-layer chromatography of reaction products (4 hr) purified by SepPack C-18 columns. Panel A: P^k assay using 25 μg CDH as substrate. Plate was run in chloroform-methanol-water (60/35/8 v/v/v). […] Panel B: P1 assay using 20 μg PG as substrate. Plate was run in chloroform-methanol-water (60/40/10 v/v/v). No specific product was formed with UDP-Gal donor substrate, whereas the β3GlcNAc-T transferred GlcNAc into PG with UDP-GlcNAc.
as §1

Namalwa cells = test: Cell surface P^k/CD77 antigen expression after transient transfection, FACS analysis; format: cell-based, human; details: transient transfection of Namalwa cells, 48 hours, 1A4 monoclonal antibody
Procedure: FIG. 7 illustrates cell surface expression of P^k/CD77 antigen in Namalwa cells after transient transfection of α4Gal-T1. Constructs p#5, #45, and #67, as well as empty pDR2 vector were electroporated in Namalwa cells and expression of P^k/CD77 antigen was tested after 48 hours. Cells were labeled with 1A4 monoclonal antibody and GAM-FITC (grey histograms) or with GAM-FITC alone (empty histograms) and analysed with a FACSCalibur flow cytometer.
The three full coding constructs #67, #45, and p#5, were cloned into pDR2 (Clontech, USA). Insert was excised from pBKs with BamHI/XhoI and inserted into the BamHI/SalI sites of pDR2. Transient transfection of 5×10^6 Namalwa cells with 20 μg cDNA was done by double-pulse electroporation using an Easy-cell ject+ (Eurogentec, France). Expression of CD77/P^k antigen was evaluated by FACS analysis on a FACSCalibur (Beckton-Dickinson, USA) using 1A4 monoclonal antibody (Wiels, 1997).

[2] = P1 assay: α4Gal-T activity with paragloboside (PG) acceptor; format: biochemical; details: full coding constructs in insect cells, 20 μg PG, UDP-Gal donor
Procedure: as §2
Full coding constructs were prepared by genomic PCR using primer pair HCRS131 (5′-[…]) (SEQ ID NO:7) and HCRS125 (5′-[…]) (SEQ ID NO:8) and genomic DNA from phenotyped individuals with phenotypes P1+ (#165) and p (#4) (see Table II for sequence). Three different full coding constructs were selected for expression: #67 (A109, T548, G903, G987), #45 (G109, T548, G903, A987), and p#5 (A109, A548, G903, G987). The products were cloned into BamHI and EcoRI sites of pBluescript KS+, and subsequently into the insect cell expression vector pVL1393 (Pharmingen), and sequenced in full. […]

OC[C@H]1O[C@@H](O[C@H]2[C@H](O)[C@@H](O)[C@H](OCc3ccccc3)O[C@@H]2CO)[C@H](O)[C@@H](O)[C@H]1O [benzyl β-lacto-side]
acceptor activity over background (α4Gal-T1): no significant activity over background values

N[C@H]1C(O)O[C@H](CO)[C@@H](O[C@@H]2O[C@H](CO)[C@H](O)[C@H](O)[C@H]2O)[C@@H]1O (stereo partly drawn) [lactosamine]
acceptor activity over background (α4Gal-T1): no significant activity over background values

OC[C@H]1O[C@@H](O[C@H]2[C@H](O)[C@@H](O)C(O)O[C@@H]2CO)[C@H](O)[C@@H](O)[C@H]1O (stereo partly drawn) [lactose]
acceptor activity over background (α4Gal-T1): no significant activity over background values

B1: α4Gal-T1^37V: full coding human α4Gal-T1 variant, construct #45 (G109, T548, G903, A987), Val at residue 37 (protein, UniProt Q9NPC4 1-353, looked up)
chain: MSKPPDLLLRLLRGAPRQRVCTLFIIGFKFTFFVSIMIYWHVVGEPKEKGQLYNLPAEIPCPTLTPPTPPSHGPTPGNIFFLETSDRTNPNFLFMCSVESAARTHPESHVLVLMKGLPGGNASLPRHLGISLLSCFPNVQMLPLDLRELFRDTPLADWYAAVQGRWEPYLLPVLSDASRIALMWKFGGIYLDTDFIVLKNLRNLTNVLGTQSRYVLNGAFLAFERRHEFMALCMRDFVDHYNGWIWGHQGPQLLTRVFKKWCSIRSLAESRACRGVTTLPPEAFYPIPWQDWKKYFEDINPEELPRLLSATYAVHVWNKKSQGTRFEATSRALLAQLHARYCPTTHEAMKMYL
modifications: full-length
galactosyltransferase (α4Gal-T) activity with CDH [1]: marked increase in galactosyltransferase activity
galactosyltransferase (α4Gal-T) activity with CDH ([1]; listed as #45): resulted in α4Gal-T activity toward CDH
P^k/CD77 expression (Namalwa cells): clearly resulted in P^k/CD77 expression
α4Gal-T activity with neolacto-series (paragloboside) glycolipid acceptor (P1 synthase activity) [2]: neither α4Gal-T1^37M or α4Gal-T1^37V constructs conferred α4Gal-T activity

B2: α4Gal-T1^183K: full coding α4Gal-T1 from p individuals, construct p#5 (A109, A548, G903, G987), Met183 to Lys (protein, UniProt Q9NPC4 1-353, looked up, variant M183K)
chain: MSKPPDLLLRLLRGAPRQRVCTLFIIGFKFTFFVSIMIYWHVVGEPKEKGQLYNLPAEIPCPTLTPPTPPSHGPTPGNIFFLETSDRTNPNFLFMCSVESAARTHPESHVLVLMKGLPGGNASLPRHLGISLLSCFPNVQMLPLDLRELFRDTPLADWYAAVQGRWEPYLLPVLSDASRIALKWKFGGIYLDTDFIVLKNLRNLTNVLGTQSRYVLNGAFLAFERRHEFMALCMRDFVDHYNGWIWGHQGPQLLTRVFKKWCSIRSLAESRACRGVTTLPPEAFYPIPWQDWKKYFEDINPEELPRLLSATYAVHVWNKKSQGTRFEATSRALLAQLHARYCPTTHEAMKMYL
modifications: full-length
notes: full coding α4Gal-T1 from p individuals, construct p#5 (A109, A548, G903, G987), Met183 to Lys
galactosyltransferase (α4Gal-T) activity with CDH [1]: no activity
galactosyltransferase (α4Gal-T) activity with CDH ([1]; listed as #5): no activity above background
